Test results taken from US20240018237A1 (SICHUAN KELUN BIOTECH BIOPHARMACEUTICAL, published 2024).
Changes are numbered by the printed parent chain.

B1: 19F6-Hu35 (antibody, human IgG1, kappa, V domains shown)
VH: QVQLQESGPGLVKPSQTLSLTCTVSGYSITSDYAWNWIRQFPGKGLEWIGYISYSGSIRYNPSLKSRVTISRDTSKNQFSLKLSSVTAADTAVYYCARGEITYYFDYWGQGTLVTVSS
VL: ETTLTQSPAFMSATPGDKVTISCKASTDIDDDMNWYQQKPGEPPKLIISEGNTLRPGIPPRFSSSGYGTDFTFTINNIESEDAADYYCLQSNDLPLTFGQGTKLEIKR
notes: humanized, human IgG1 / kappa
B2: 19F6-Hu14 (antibody, human IgG1, kappa, V domains shown)
VH: B1 VH with Q16E, S25T, F41P, I49M, N61K, S66D, V68I
VL: DIQMTQSPSSLSASVGDRVTITCQTSTDIDDDLNWYQQKPGKPPKLLISEGNTLETGVPSRFSGSGSGTDFTFTISSLQPEDIADYYCLQSNDLPLTFGAGTKLEIKR
notes: humanized, human IgG1 / kappa
B3: 19F6-Hu34 (antibody, human IgG1, kappa, V domains shown)
VH: B1 VH
VL: B2 VL
notes: humanized, human IgG1 / kappa
B4: 19F6-Hu22 (antibody, human IgG1, kappa, V domains shown)
VH: B1 VH with Q16E, F41P, I49M, S66D, V68I
VL: DIQMTQSPSSLSASVGDRVTITCITTTDIDDDMNWYQQKPGKAPKLLISEGNTLQSGVPSRFSGSGYGTDFTLTISSLQPEDFATYYCLQSNDLPLTFGQGTKLEIKR
notes: humanized, human IgG1 / kappa
B5: 19F6-Hu23 (antibody, human IgG1, kappa, V domains shown)
VH: B1 VH with Q16E, F41P, I49M, S66D, V68I
VL: B4 VL with I24R, T25A, T26S, S49Y
notes: humanized, human IgG1 / kappa
B6: 19F6-Hu24 (antibody, human IgG1, kappa, V domains shown)
VH: B1 VH with Q16E, F41P, I49M, S66D, V68I
VL: B2 VL
notes: humanized, human IgG1 / kappa
B7: 19F6-Hu35V2 (antibody, human IgG1, kappa, V domains shown)
VH: B1 VH
VL: B1 VL with D31S, N77K, E79K, D85T
notes: humanized, human IgG1 / kappa
B8: 19F6-Hu35V10 (antibody, human IgG1, kappa, V domains shown)
VH: B1 VH
VL: B1 VL with D31S, E42K, N76R, N77K
notes: humanized, human IgG1 / kappa
B9: 19F6-Hu12 (antibody, human IgG1, kappa, V domains shown)
VH: B1 VH with Q16E, S25T, F41P, I49M, N61K, S66D, V68I
VL: B4 VL
notes: humanized, human IgG1 / kappa
B10: 19F6-Hu13 (antibody, human IgG1, kappa, V domains shown)
VH: B1 VH with Q16E, S25T, F41P, I49M, N61K, S66D, V68I
VL: B4 VL with I24R, T25A, T26S, S49Y
notes: humanized, human IgG1 / kappa
B11: 19F6-Hu35V8 (antibody, human IgG1, kappa, V domains shown)
VH: B1 VH
VL: B1 VL with D31N, E42K, E79Q, D85T
notes: humanized, human IgG1 / kappa
B12: 19F6-Hu31 (antibody, human IgG1, kappa, V domains shown)
VH: B1 VH
VL: B4 VL with Q55R, S56P
notes: humanized, human IgG1 / kappa
B13: 19F6-Hu35V3 (antibody, human IgG1, kappa, V domains shown)
VH: B1 VH
VL: B1 VL with D28S, E42K, N77K, D85T
notes: humanized, human IgG1 / kappa
B14: 19F6-Hu35V6 (antibody, human IgG1, kappa, V domains shown)
VH: B1 VH
VL: B1 VL with D31N, E42K, E79K, D85T
notes: humanized, human IgG1 / kappa
B15: 19F6-Hu35V9 (antibody, human IgG1, kappa, V domains shown)
VH: B1 VH
VL: B1 VL with D28S, E42K, N76R, N77K
notes: humanized, human IgG1 / kappa
B16: 19F6-Hu21 (antibody, human IgG1, kappa, V domains shown)
VH: B1 VH with Q16E, F41P, I49M, S66D, V68I
VL: B4 VL with Q55R, S56P
notes: humanized, human IgG1 / kappa
B17: 19F6-Hu11 (antibody, human IgG1, kappa, V domains shown)
VH: B1 VH with Q16E, S25T, F41P, I49M, N61K, S66D, V68I
VL: B4 VL with Q55R, S56P
notes: humanized, human IgG1 / kappa
B18: 19F6-Hu35V4 (antibody, human IgG1, kappa, V domains shown)
VH: B1 VH
VL: B1 VL with D28S, D31N, E42K, N77K, D85T
notes: humanized, human IgG1 / kappa
B19: 19F6-Hu32 (antibody, human IgG1, kappa, V domains shown)
VH: B1 VH
VL: B4 VL
notes: humanized, human IgG1 / kappa
B20: 19F6-Hu35V7 (antibody, human IgG1, kappa, V domains shown)
VH: B1 VH
VL: B1 VL with D28S, E42K, E79Q, D85T
notes: humanized, human IgG1 / kappa
B21: 19F6-Hu33 (antibody, human IgG1, kappa, V domains shown)
VH: B1 VH
VL: B4 VL with I24R, T25A, T26S, S49Y
notes: humanized, human IgG1 / kappa

Each binder was assayed against T1, human ROR1 (full-length, on the cell surface) (human, UniProt Q01973 30-937) (assay: flow cytometry, Ba/F3-ROR1 cells).
T1 construct: whole, on cells; the tumour cell lines carry their own ROR1; also called Ba/F3-ROR1 cells; Jeko-1
T1 sequence (Q01973 30-937): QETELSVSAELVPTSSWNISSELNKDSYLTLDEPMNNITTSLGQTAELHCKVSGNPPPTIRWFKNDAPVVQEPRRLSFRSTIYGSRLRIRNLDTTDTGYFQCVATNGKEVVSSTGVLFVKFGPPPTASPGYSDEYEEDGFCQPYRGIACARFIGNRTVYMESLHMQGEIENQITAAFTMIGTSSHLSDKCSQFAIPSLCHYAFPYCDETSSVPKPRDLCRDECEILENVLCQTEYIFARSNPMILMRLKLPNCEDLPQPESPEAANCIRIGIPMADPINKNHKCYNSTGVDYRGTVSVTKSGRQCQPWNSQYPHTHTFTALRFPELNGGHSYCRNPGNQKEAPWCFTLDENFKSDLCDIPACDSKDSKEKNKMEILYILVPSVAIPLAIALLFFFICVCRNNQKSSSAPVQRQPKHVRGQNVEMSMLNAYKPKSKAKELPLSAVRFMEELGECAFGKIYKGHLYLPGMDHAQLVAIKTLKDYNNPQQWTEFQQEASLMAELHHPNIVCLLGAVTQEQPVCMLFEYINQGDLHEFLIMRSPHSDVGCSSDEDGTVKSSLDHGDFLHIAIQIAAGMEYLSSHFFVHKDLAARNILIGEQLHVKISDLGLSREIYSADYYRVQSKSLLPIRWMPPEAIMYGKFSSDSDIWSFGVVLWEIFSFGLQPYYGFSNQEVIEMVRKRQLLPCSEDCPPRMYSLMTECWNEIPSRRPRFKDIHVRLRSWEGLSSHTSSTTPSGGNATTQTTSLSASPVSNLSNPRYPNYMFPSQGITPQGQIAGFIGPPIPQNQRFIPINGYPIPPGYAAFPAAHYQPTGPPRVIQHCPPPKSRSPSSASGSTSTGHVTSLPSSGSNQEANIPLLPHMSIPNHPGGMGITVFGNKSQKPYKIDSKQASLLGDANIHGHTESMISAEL

| EC50 [nM] | Binder |
| --- | --- |
| 0.38 | B1 |
| 0.62 | B2 |
| 0.53 | B3 |
| 0.3 | B4 |
| 0.35 | B5 |
| 0.39 | B6 |
| 0.19 | B7 |
| 0.27 | B8 |
| 0.43 | B9 |
| 0.29 | B10 |
| 0.18 | B11 |
| 0.3 | B12 |
| 0.18 | B13 |
| 0.17 | B14 |
| 0.21 | B15 |
| 0.36 | B16 |
| 0.25 | B17 |
| 0.28 | B18 |
| 0.44 | B19 |
| 0.19 | B20 |
| 0.35 | B21 |

Each binder was assayed against T1, human ROR1 (full-length, on the cell …) (assay: flow cytometry, A549 cells).
Description: (§1) The affinities of the anti-human ROR1 humanized antibodies to Ba/F3-ROR1, Jeko-1, HT-29 and A549 cells were detected by flow cytometry. The specific experimental steps were as follows: the BaBF3-ROR1, Jeko-1, HT-29 and A549 cells were incubated with the purified humanized antibodies of different concentration gradients on ice for 30 minutes, and the anti-ROR1 antibody UC961 with human IgG1 and the anti-TNP antibody were used as positive and negative controls, respectively.

| EC50 [nM] | Binder |
| --- | --- |
| 0.08 | B1 |
| 0.12 | B2 |
| 0.13 | B3 |
| 0.25 | B4 |
| 0.14 | B5 |
| 0.24 | B6 |
| 0.1 | B7 |
| 0.12 | B8 |
| 0.16 | B9 |
| 0.47 | B10 |
| 0.09 | B11 |
| 0.09 | B12 |
| 0.1 | B13 |
| 0.08 | B14 |
| 0.14 | B15 |
| 0.31 | B16 |
| 0.17 | B17 |
| 0.15 | B18 |
| 0.09 | B19 |
| 0.1 | B20 |
| 0.25 | B21 |

These binders were tested against T1, human ROR1 (full-length, on the cell …) (assay: flow cytometry, HT-29 cells).
Description: as §1

| EC50 [nM] | Binder |
| --- | --- |
| 0.09 | B1 |
| 0.1 | B2 |
| 0.19 | B3 |
| 0.16 | B4 |
| 0.62 | B5 |
| 0.25 | B6 |
| 0.18 | B7 |
| 0.17 | B8 |
| 0.11 | B9 |
| 0.75 | B10 |
| 0.12 | B11 |
| 0.1 | B12 |
| 0.17 | B13 |
| 0.16 | B14 |
| 0.17 | B15 |
| 0.18 | B16 |
| 0.08 | B17 |
| 0.3 | B18 |
| 0.09 | B19 |
| 0.18 | B20 |
| 0.78 | B21 |

The binders below were run against T1, human ROR1 (full-length, on the cell …) (assay: flow cytometry, Jeko-1 cells).
Description: as §1

| EC50 [nM] | Binder |
| --- | --- |
| 0.15 | B1 |
| 0.12 | B2 |
| 0.18 | B3 |
| 0.13 | B4 |
| 0.21 | B5 |
| 0.2 | B6 |
| 0.19 | B7 |
| 0.35 | B8 |
| 0.17 | B9 |
| 0.17 | B10 |
| 0.18 | B11 |
| 0.18 | B12 |
| 0.18 | B13 |
| 0.2 | B14 |
| 0.28 | B15 |
| 0.22 | B16 |
| 0.15 | B17 |
| 0.2 | B18 |
| 0.18 | B19 |
| 0.22 | B20 |
| 0.15 | B21 |
